Patent publication US20260193317A1, “COMBINATION THERAPY WITH ACTRIIB RECEPTOR VARIANTS AND GLP-1 AGONISTS” (35PHARMA Inc., priority 2023, published 2026)
Like-named read-outs stand apart in the source and are kept apart here. One block for each molecule: values may come before it.

Tests used:
[1] = Skeletal muscle mass and Mss51 expression in lean mice; assay type: in vivo
Experimental: The effects of P1229 on body composition and metabolism in lean mice were further assessed.
Additional assays were performed to assess the relative expression level of Mss51, a skeletal muscle-specific gene. Mss51 is a key target of myostatin signaling, with a role in fatty acid oxidation, glycolysis, and oxidative phosphorylation.

[2] = test system: follicle-stimulating hormone (FSH); experiment: FSH production in DIO mice; assay type: in vivo; conditions: 3 weeks of treatment
Experimental: Experiments were performed to assess the effects of P1229 on body composition and metabolism in diet-induced obese (DIO) mice. DIO mice were purchased from Jackson Laboratories (#380050). Briefly, mice were fed a high-fat diet (HFD, 60% kcal from fat) from 6 weeks of age until 22 weeks of age (total of 16 weeks on the HFD). […] After 3 weeks of treatments, some animals were sacrificed and scanned by EchoMRI […] (FIGS. 11A-F), while others were sacrificed for tissue collection and RNA analysis. Animals were maintained on the HFD throughout the acclimatization and treatment periods. The murine version of bimagrumab used for these experiments comprises the heavy chain amino acid sequence of SEQ ID NO: 376 and the light chain sequence of SEQ ID NO: 377.
Follicle-stimulating hormone (FSH) is a known biomarker of in vivo target engagement for activin receptor-based traps (See Attie et al. (2013). Muscle Nerve, 47: 416-423). To further validate in vivo target engagement for exemplary agents, FSH production was evaluated in DIO mice, as described above.

activin A [3] = target: T1, activin A (Homo sapiens, UniProt P08476); experiment: Small-scale activin A ELISA with CHO supernatants; conditions: 1 μg/mL protein, 30 ng/mL activin A, loss of signal = binding
T1 sequence (P08476 311-426): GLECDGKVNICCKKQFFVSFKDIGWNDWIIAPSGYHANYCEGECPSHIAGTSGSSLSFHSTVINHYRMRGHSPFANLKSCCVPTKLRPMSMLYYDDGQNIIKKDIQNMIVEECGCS
Experimental: Small-scale testing of ActRIIB-ECD fusion proteins. Additional investigation of a series of exemplary agents was performed using proteins expressed in CHO cells. Briefly, DNA encoding the ActRIIB-ECD-Fc fusion constructs was transfected in cells seeded in 12-well plates in a final volume of 1 ml. After 7 days, the supernatant was harvested, clarified, and the amount of expressed protein in each well was quantified using standard methods. The potency of each agent for inhibition of activin A, BMP-9 and BMP-10 was determined in three separate assays.
The next day, the plate was washed three times with buffer (Biolegend #421601). […] Expressed proteins in the supernatants described above were diluted to 2 μg/mL in assay diluent (0.5% BSA, 0.05% tween-20 in PBS), mixed 1:1 with recombinant human activin A (R&D #338-AC, 60 ng/mL, diluted in assay diluent). Complexes were immediately added to the 96-well plate in technical duplicates and incubated for 1 h at RT (concentration of expressed protein and activin A on the plate were 1 μg/mL and 30 ng/mL, respectively). […] In this assay, a loss of signal indicates binding of the exemplary agent to activin A, which prevents activin A binding to the anti-activin A antibody on the plate. Results are expressed as a % of the signal obtained with wild-type ActRIIB-Fc (P75).

[4] = Single subcutaneous injection in CD-1 mice: body weight; assay type: in vivo; conditions: CD-1 male mice, single s.c. injection; P1229 50 mg/kg, semaglutide 2 mg/kg
activin A [5] = target: T1, activin A; experiment: TGFβ-reporter HEK293 cell-based assay: activin A neutralization; conditions: for IC50: read-out: CBA Potency Activin A; for CBA potency Activin A, potency fold-change: relative to reference (P1372 = 1)
Experimental: Potency testing by neutralization on cell-based assays. Characterization of the activin A, activin B, GDF-8, and GDF-11 inhibition potency (IC50) of the fusion proteins was performed using a cell-based reporter assay. TGFβ-reporter HEK293 cells were obtained from InvivoGen (San Diego, CA, cat. no. hkb-tgfb) and were maintained following the manufacturer's instructions. Briefly, cells were grown in high-glucose DMEM, containing 10% heat-inactivated FBS, 30 μg/mL blasticidin, 250 μg/mL hygromycin B, and 100 μg/mL zeocin (hereafter, “growth medium”). Once the cells reached 70-80% confluence, they were detached in growth medium by gently tapping on the flask. For all assays, cells were seeded in 96-well plates at a density of 20,000 cells per well in growth medium. Cells were left to attach for 10 minutes at room temperature (RT) prior to being transferred to a 37° C. incubator (5% CO2) overnight. The next day, treatments were prepared by combining the appropriate concentration of agent with activin A, activin B, GDF-8, or GDF-11 for 30 min at RT (shaking at 150 rpm). Treatments were conducted in high-glucose DMEM (serum-free and with no selection agents), and the final concentration of cytokine (ligand) was 0.3 nM. Growth medium was removed from the culture plates, and cells were treated with the appropriate mixes of fusion protein and cytokine. Treatment duration was for 18-22 h at 37° C. (5% CO2). All treatments were performed in technical duplicates and at least one or two independent experiments were conducted for each cytokine. At the end of the treatment period, supernatants were transferred to a new plate, and centrifuged at 300 RPM for 3 min. Forty microlitres of supernatant from each condition was transferred to a new plate, into which 180 μL of Quanti-Blue reagent (InvivoGen, cat. no. rep-qbs) was added. Quanti-Blue reagent was prepared following the manufacturer's instructions. Samples were incubated for 45 min at 37° C. At the end of the incubation, absorbance was read at 650 nm. The data were plotted in GraphPad Prism, which was used to calculate IC50 values as a non-linear regression.

activin A [6] = target: T1, activin A; experiment: Potency testing by ELISA: activin A binding; conditions: for ELISA potency Activin A, potency fold-change: relative to reference (P1372 = 1)
Excerpt: Potency testing by ELISA. […] The next day, the plate was washed three times with buffer (Biolegend #421601).

[7] = D 7 after storage at room temperature
[8] = D 28, storage at room temperature

- activin A binding, ELISA signal relative to P75 (activin A [3]): potent activin A binding
Molecule: P1229: hActRIIB L33W, 14 aa linker, IgG1-DL Fc; SEQ ID 211
- tibialis anterior and gastrocnemius weight ([1]; 25 mg/kg twice weekly, seven days): significantly increased
- Mss51 expression in the tibialis muscle relative to vehicle ([1]; 5 or 25 mg/kg twice weekly, one week): dose-dependent decrease in Mss51 expression
- FSH production [2]: significant decreases in FSH production
- body weight [4]: increased body weight

- CBA potency Activin A, fold-change vs reference (activin A [5]; D 0): 1 (ref)
- IC50 (activin A [5]; D 0): 0.59 nM
- IC50 (activin A [5]; D 7, 2-8° C.): 0.81 nM
- IC50 (activin A [5]; D 7, RT): 0.78 nM
- CBA potency Activin A, fold-change vs reference (activin A [5]; D 7 after storage at 2-8° C.): 1 (ref)
- CBA potency Activin A, fold-change vs reference (activin A [5]; [7]): 1 (ref)
- IC50 (activin A [5]; D 14, 2-8° C.): 0.63 nM
- IC50 (activin A [5]; D 14, RT): 0.74 nM
- IC50 (activin A [5]; D 28, 2-8° C.): 0.99 nM
- IC50 (activin A [5]; D 28, RT): 0.9 nM
- CBA potency Activin A, potency fold-change (activin A [5]; D 28, storage at 2-8° C.): 1 (ref) fold
- CBA potency Activin A, potency fold-change (activin A [5]; [8]): 1 (ref) fold
- IC50 (activin A [5]; D 56, RT): 1.1 nM
- ELISA potency Activin A, fold-change vs reference (activin A [6]; D 0): 1 (ref)
- ELISA potency Activin A, fold-change vs reference (activin A [6]; D 7 after storage at 2-8° C.): 1 (ref)
- ELISA potency Activin A, fold-change vs reference (activin A [6]; [7]): 1 (ref)
- ELISA potency Activin A, potency fold-change (activin A [6]; D 28, storage at 2-8° C.): 1 (ref) fold
- ELISA potency Activin A, potency fold-change (activin A [6]; [8]): 1 (ref) fold
B1: P1372: hActRIIB L33W, 14 aa linker, IgG1 YTE-DL Fc; SEQ ID 231 (protein)
chain: ETRECIYYNANWELERTNQSGLERCEGEQDKRWHCYASWRNSSGTIELVKKGCWLDDFNCYDRQECVATEENPQVYFCCCEGNFCNERFTHLPEAGGPEVTYEPPPTGGGGSGGGGSGGGGTHTCPPCPAPELLGGPSVFLFPPKPKDTLYITREPEVTCVVVDVSHEDPEVKFNWYVDGVEVHNAKTKPREEQYNSTYRVVSVLTVLHQDWLNGKEYKCKVSNKALPAPIEKTISKAKGQPREPQVYTLPPSRDELTKNQVSLTCLVKGFYPSDIAVEWESNGQPENNYKTTPPVLDSDGSFFLYSKLTVDKSRWQQGNVFSCSVMHEALHNHYTQKSLSLSPG
